B1: 43H7 (antibody, human IgG2, V domains shown)
VH: QVQLVESGGGVVQPGRSLRLSCAASGFTFSTYGMHWVRQAPGKGLEWVTFIWYDGRNKYYADSVKGRFTVSRDNSKNTLYLQMNSLRAEDTAVYYCARGDDYGDYHPHYYYYGLDVWGQGTTVTVSS
VL: DIVMTQTPLSLSVTPGQPASISCKSSQSLLDSDGKTYLYWYLQKPGQPPQLLIYEVSNRFSGVPDRFSGSGSGTDFTLKISRVEAEDVAYYYCMQSIQLPWTFGQGTKVEIK
notes: Fully human, XenoMouse XMG2; also called #11; Cur12.1 PL43 H7
B2: 9G12 (antibody, human IgG2, V domains shown)
VH: QVQLVESGGGVVQPGRSLRLSCAASGFTFSGYGMHWVRQAPGKGLEWVAFIWYNGNDNYYTDSVKGRFTISRDNSKNTLYLQMNSLRAEDTAVYYCARGDDYGDYHPHYYYYGMDVWGQGTTVTVSS
VL: DIVMTQTPLSLSVTPGQPASISCKSSQSLLDSDGKTYLYWYLQKPGQPPQLLIYEVSNRFSGVPDRFSGSGSGTDFTLKISRVEAEDIGVYYCLQSIQLPWTFGQGTKVEIK
notes: Fully human, XenoMouse XMG2; also called #36; Cur12.1 PL09 G12
B3: 35F1 (antibody, human IgG2, V domains shown)
VH: QVQLQESGPGLVKPSQTLSLTCTVSGGSIKSGDYYWSWVRQLPGKGLEWIGYIYYSGSTYYNPSLKSRVTISIDTSKNQFSLKLSSVTAADTAVYYCAREGSYYDSGGFDYWGQGTLVTVSS
VL: not shown
notes: Fully human, XenoMouse XMG2; also called #50; Cur12.1 PL35 F1
B4: 42C1 (antibody, human IgG2, V domains shown)
VH: QVQLQESGPGLVKPSQTLSLTCTVSGVSISSGGYYWSWIRQHPGKGLEWIGYIYYSGSTYYNPSLKSRVTISVDTSKNQFSLKLSSVTAADTAVFYCAREGEYYDEGGFDYWGQGTLVTVSS
VL: not shown
notes: Fully human, XenoMouse XMG2; also called #24; Cur12.1 PL42 C1

Tests used:
[1] = target: T1, recombinant human SLPI (Secretory leukocyte protease inhibitor), R&D Systems Cat#260-PI (human, UniProt P03973 25-131, biotinylated in the streptavidin-plate ELISAs and on SRBCs); experiment: ELISA, SLPI (60 ng/ml) + supernatant on plate-bound chymotrypsin
T1 construct: Bought protein; also called biotinylated SLPI; B-Cur12
T1 sequence (P03973 25-131): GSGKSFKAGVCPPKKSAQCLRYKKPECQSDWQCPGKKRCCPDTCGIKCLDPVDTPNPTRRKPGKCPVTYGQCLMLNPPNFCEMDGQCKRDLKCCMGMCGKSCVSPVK
Procedure: Antibodies were screened for ability to inhibit SLPI activity. The assay involves assessing SLPI binding to chymotrypsin and resultant inhibition of chymotrypsin enzyme activity in the presence or absence of antibody. Biotinylated bovine chymotrypsin (5 μg/ml) was incubated with streptavidin coated plates for 30 minutes at RT. Each plate was washed 5 times with dH₂O prior to addition of an anti-SLPI antibody mixture (30 μl of SLPI reconstituted in 100 mM Tris, 10 mM CaCl₂ and 0.1% HSA pH 7.5 mixed with 20 μl of monoclonal antibody supernatant being tested; final concentration SLPI 60 ng/ml; incubated for 1 hour at RT) and plates were incubated for 1 hour. Plates were washed 5 times with dH₂O then incubated with 50 μl of a polyclonal Goat anti-SLPI (purchased from R&D) at 1 μg/ml/well for 1 hour. After washing, 50 μl of a rabbit anti-goat HRP-conjugated antibody/well was added and incubated for 1 hour. After washing, 50 μl of TMB substrate/well was added.. The reaction was stopped by adding of 50 μl of 1M phosphoric acid/well. Plates were read at wavelength 450 nm.

[2] = target: T1, recombinant human SLPI (Secretory …); experiment: limiting antigen ELISA, biotinylated SLPI coated at 800 ng/ml
Procedure: (§1) The limiting antigen analysis is a method that affinity ranks the antigen-specific antibodies in B cell culture supernatants. […] Each plate was washed 5 times with dH₂O, before 46 μl/well of 1% milk in PBS with 0.05% sodium azide was added, followed by 4 μl/well of B cell supernatant. After 22 hours at RT on a shaker, the plates were again washed 5 times with dH₂O. Goat anti-Human (Fc)-HRP at 1 μg/ml, 50 μl/well was added. After 1 hour at RT, the plates were again washed 5 times with dH₂O and 50 μl/well of TMB substrate was added. The reaction was stopped by the addition of 50 μl of 1M phosphoric acid to each well and the plates were read at wavelength 450 nm. 42C1, 43H7, 35F1 and 9G12 were chosen for further evaluation and cloning.

[3] = target: T1, recombinant human SLPI (Secretory …); experiment: limiting antigen ELISA, biotinylated SLPI coated at 400 ng/ml
Procedure: as §1

[4] = target: T1, recombinant human SLPI (Secretory …); experiment: limiting antigen ELISA, biotinylated SLPI coated at 200 ng/ml
Procedure: as §1

[5] = target: T1, recombinant human SLPI (Secretory …); experiment: ELISA, recombinant antibody in HEK 293 supernatant titrated 1:2 on biotinylated human SLPI
Source text: After isolation of single plasma cells, mRNA was extracted and reverse transcriptase PCR was used to generate cDNA. The cDNA encoding the variable heavy and light chains was specifically amplified using polymerase chain reaction. The variable heavy chain region was cloned into an IgG2 expression vector, generated by cloning the constant domain of human IgG2 into the multiple cloning site of pcDNA3.1+/Hygro (Invitrogen, Burlington, ON). The variable light chain region was cloned into an IgK expression vector, generated by cloning the constant domain of human IgK into the multiple cloning site of pcDNA3.1+/Neo (Invitrogen, Burlington, ON). The heavy chain and the light chain expression vectors were then co-lipofected into a 60 mm dish of 70% confluent human embryonic kidney 293 (HEK 293) cells and the transfected cells were incubated for 24 hours to secrete recombinant antibody. Supernatant (3 mL) was harvested from the HEK 293 cells and the secretion of intact antibody and binding to SLPI tested ELISA. To detection secretion, 96 well plates were coated with 2 μg/mL of goat anti-human IgG H+L overnight. For detection of SLPI binders, streptavidin plates were coated with biotinylated human SLPI (0.5 μg/mL) overnight at four degrees. The plates were washed five times with dH₂O. Recombinant antibodies titrated 1:2 for 7 wells from the undiluted minilipofection supernatant were added, incubated and the plates were washed five times with dH₂O. Goat anti-human IgG Fc-specific HRP-conjugated antibody was added at a final concentration of 1 μg/mL, incubated for 1 hour at RT and the plates were washed as before. Plates were developed with the addition of TMB for 30 minutes and the reaction was stopped by the addition of 1 M phosphoric acid. Each ELISA plate was analyzed to determine the optical density of each well at 450 nm.

[6] = target: T1, recombinant human SLPI (Secretory …); experiment: limiting antigen ELISA, biotinylated SLPI coated at 100 ng/ml
Procedure: as §1

Binder | % Max [1] [%] | O.D. [1] [OD450] | OD [2] [OD450] | OD [3] [OD450] | OD [4] [OD450] | Binding to SLPI (titre of supernatant) [5] [reciprocal dilution] | OD [6] [OD450]
B1 | 90 | 0.666 | 4.1 | 4.02 | 3.52 | > 64 | 2.6
B2 | 61 | 0.452 | 2.25 | 2.19 | 1.36 | > 64 | 0.98
B3 | 47 | 0.35 | 0.37 | 0.3 | 0.24 | > 64 | 0.2
B4 | 103 | 0.762 | 3.85 | 3.58 | 3.69 | > 64 | 3.42
